Assay results taken from the supplement of paper PMC12042874.
± gives the uncertainty stated by the source.

Assay: amyloid nucleation score (Sup35N fusion, yeast selection) (log enrichment); library NNK1; higher = more nucleation; inactive = no reads after selection
Procedure, shortened: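 In psi-negative yeast, Sup35N fusions carrying peptides of 20 random codons were induced with 100 μM copper sulfate for 24 hours. The cells then grew 7 days at 30°C on medium lacking adenine and uracil, and plasmid inserts from input and output were Illumina-sequenced, excluding sequences with under 100 input reads. Nucleation score is the DiMSum log enrichment of output over input reads, centred on the mode score of non-aggregating sequences.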

Substance	amyloid nucleation score
DVFIGMMLRACNVLHSGWFS	0.18 ± 0.23
DVGGCHVVTGFERNVKGDLL	1.44 ± 0.78
DVLVHLP	-0.917 ± 1.2
DVSPLVFVC	-0.407 ± 0.74
DVYVSCGYVSQMGPHAEWDG	0.102 ± 0.54
DWDSALPSLNFDSETPFYKS	-0.649 ± 0.48
DWLFVGGGR	0.131 ± 0.56
DWMNYVWTVTRIGSYSMVGI	1 ± 0.68
DWPFQYDVKSRLVILLWFVR	0.086 ± 1.4
DWQSVRKFLRSVVIRMVSLV	-0.399 ± 0.24
DWRLNLVYKMSA	0.734 ± 0.75
DWVLTGGRIWK	-0.803 ± 0.54
DWVVSCAYGFSSARNGGVCL	-0.039 ± 0.39
DYFIVGTSVGGDSVTLDNQM	0.042 ± 0.34
DYGNTVNYSSGEDVHWL	-0.592 ± 1.7
DYLLFSVQGNYESWYNGCKF	-2.05 ± 2.4
DYSCARYEPGNMVLLC	-0.813 ± 1.5
DYTRC	0.391 ± 0.97
EAGHSIFNGNWRGID	-0.536 ± 1.2
EAIIEWWFHDSLASHSCTEV	0.58 ± 1.2
EALCSTSEGILHKEWF	0.178 ± 0.28
ECDSAFRSQGGGLACLFRMK	-0.171 ± 0.42
ECIIYPIVMHVFVQNMM	1.56 ± 0.28
EDALRIFRKETDPDL	0.681 ± 0.29
EDCIMGNWNLCSKGSSGF	0.374 ± 0.3
EDHVVYQSADRFLRNCNWEY	0.266 ± 0.43

Substance	amyloid nucleation score
EDLRVTGAKGYGCAECRACV	-0.186 ± 1.9
EDMWKTCTAV	0.244 ± 0.37
EDSLFRSVLILMSVMFIQVD	1.05 ± 0.38
EDSSTSLLVGMELKRLTVSF	0.258 ± 0.35
EDTSMELWVSAGIRGGLPLV	-1.13 ± 0.94
EDTWVLLSHYHFNSMLSLLM	0.161 ± 0.26
EFDTQSCQVDTVAVYIEPSL	0.793 ± 0.65
EFEPLSFQLVVELMRKFL	1.52 ± 0.19
EFGFVWVKLCNWGISLLQVN	inactive
EFKLDNFQIVGYLLLTRRLI	0.222 ± 0.32
EFKLIDLFLLYWLSREHNQF	0.391 ± 0.42
EFTVPRWTPTGHTSGSLEWV	0.22 ± 0.41
EFWGVSLLVFVFCELIGIFC	-0.479 ± 0.38
EGACVKSRVWDRINVTGRSR	1.25 ± 0.68
EGNMNEWTCLSCRSRAEEAR	-0.255 ± 0.9
EGSIFCMRNCRTIWCSEE	-0.359 ± 0.33
EGYPTMSMNSRS	0.716 ± 0.44
EHGNVACRWDTHISLVWCHF	7.304 ± 0.057
EHTRKGGSCNMLQRQPFCCT	0.487 ± 0.52
EIASLTRCYRSYRIVSWLRG	0.341 ± 0.37
EIHGCGCPLSKDGGGAFMWA	1.22 ± 0.63
EINCHSSMGFMRWPPRSGNG	-0.962 ± 1
EIQGPVRT	-0.233 ± 0.59
EIRLNYMGFGPKCT	0.735 ± 0.27
EISQNTL	-0.672 ± 0.32
EISVKECGGSLDYNANLRDR	inactive

Substance	amyloid nucleation score
EITVAVSDYGVGSTWSG	0.381 ± 0.84
EITWCF	0.485 ± 0.72
EIWWYKVERAVLTVFREDCL	inactive
EKLSRAVYPRASIRVVCMLF	-0.204 ± 0.34
EKTYSCHECFFIWPRSY	-1.09 ± 0.75
EKVGLTCQRGIVLVDNIFMQ	6.986 ± 0.045
EKYDGCIFEEKQMIAGAHGM	1.15 ± 0.88
ELFAFCMVPYYTRNMLWLVG	0.584 ± 0.97
ELGLSINFQIANFAACQGYI	1.99 ± 0.24
ELGTVFGLTYYTMTDYVPMT	0.483 ± 0.22
ELGYSTHCIMS	-0.735 ± 0.66
ELKQIKVGRSLWRMVRRMGD	1.37 ± 0.36
ELRCLQVINGLASLSASVWW	0.067 ± 0.64
ELRYCEFTCSISWA	0.744 ± 0.36
ELSMCYYWRKSYIQSLGIRW	0.733 ± 0.27
ELVKFIVRADNDSWVGRASV	0.267 ± 0.93
ELYSDHIMTWM	0.69 ± 0.36
EMSIILGIERRNHCVPAMVS	-0.552 ± 1.9
EMVLLNATFYYAYCHSNRLR	0.227 ± 0.27
EMYCVYSFRSYFVYGLSLGS	-0.269 ± 0.36
ENARHRCDQ	0.571 ± 0.38
ENFPPAQ	-0.691 ± 0.5
ENIPARRLKCPFNTP	-0.511 ± 1.2
ENITPPLYNDDYRYQ	0.305 ± 0.58
ENLRHTLHKFITI	0.262 ± 0.62
ENRTSNFPYKVR	0.421 ± 0.26

Substance	amyloid nucleation score
ENWATFEEYPT	0.243 ± 0.3
ENYTCRTWAPLSGPRIWVGS	0.661 ± 0.77
EPCCDVRVKGLYMFEYYVVC	0.185 ± 1.1
EPCMWKVILYCEYVSLVFVK	-0.974 ± 1.9
EQLACQNVVSGCQSA	0.277 ± 0.97
ERAQYMSRTVRRVSFKSFFC	3.55 ± 0.13
ERLGMWDSRMVQLWDSFCIE	0.363 ± 0.48
ERPTWVGGDGSSGLVVGSDL	-0.22 ± 0.81
ERSARGGHPMLAFYMTIPTP	-0.067 ± 1.2
ESIFLRRTVALHRKVCLIDW	0.783 ± 0.36
ESMLSSIRGLHNG	-0.851 ± 1.7
ESMWVGLKINAVSNYR	0.3 ± 0.55
ESVDGTSHAVGIMNGRLKID	1.93 ± 0.1
EVEQVHLFSAVINSWCGDVF	0.575 ± 0.41
EVFDDCGGLMNYM	inactive
EVFNEKSVSLRGWNIHGNFC	0.03 ± 0.94
EVMPPLKLPRHFEEIRAEAG	-0.184 ± 0.51
EVRTEMIHCNLLTMRFCVLA	0.047 ± 0.64
EWTSAWW	-0.355 ± 0.36
EWVLFDAHAGRLVVPEH	-0.995 ± 1
EYGVGDKVIWDDMI	-0.151 ± 0.27
EYIMYYWIRIVYFVINGYLV	0.534 ± 0.36
EYNGCYFPRIM	0.628 ± 0.66
EYNSFWTVVSMILTVKWLSG	0.502 ± 0.24
FADNWLCKIRYSCGISLSKY	-0.739 ± 0.39
FAFRRSI	0.332 ± 0.9

Substance	amyloid nucleation score
FANFIAVMVTGTILF	inactive
FANLDSMNLIGKGFSMNYAL	-0.614 ± 0.97
FAQMWSLALRISVRNVISQF	5.954 ± 0.047
FASILVFQNGSIATCAINWV	0.694 ± 0.84
FATIVFVVKNENFMNADTLR	5.68 ± 0.08
FATMGSKKCSGARHSKRGSC	-0.26 ± 0.34
FAVINSPNKAGNRITRLGTY	0.681 ± 0.47
FAYEAWLMR	-0.077 ± 0.27
FAYKVLTLMNKPEGKVQSDV	-1.41 ± 2.4
FCARGRNRPN	1.04 ± 0.5
FCEDKNRRSSPSIWQNNCKM	0.829 ± 0.16
FCFLGRCEQHYYLEVHNGSE	-0.1 ± 0.49
FCLFGRLVTFLAVKMYVNCE	-0.529 ± 0.3
FCMTMRSARCGHLSMYCCFQ	1.8 ± 0.4
FCNNAPRQEWPILN	-1.31 ± 0.49
FCRRGSWVEPLLTCRYAMEA	-0.155 ± 0.64
FCSLLHPFTWYLSEHSMGLG	0.541 ± 0.57
FCTLALHNTI	1.24 ± 0.64
FCWHAFLSVTRFGRKIFFRF	0.426 ± 0.35
FCWLSMRAIRISSS	0.531 ± 0.44
FCYIHGILGRSVEYDDFCLL	0.184 ± 0.36
FDIIK	-0.358 ± 1.4
